# ± gives the standard error. Fewer inactive variants are shown than the library holds.
# B1: glmS ribozyme (parent)
# chain: AUAAAAGCGCCAGAACUACAGAAAUGUAGUUGACGAGGAGGAGGUUUAUCGAAUUUUCGGCGGAUGCCUCCAAA
# Variants of: B1
# Test: self-cleavage kobs at 2500 uM GlcN6P; higher = faster cleavage; RNA array
# Conditions: with glucosamine-6-phosphate
# Procedure, shortened: (§1)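 Tracking of barcoded ribozyme variants used a hybridised Cy3 probe at 37 °C, after in situ transcription by E. coli RNA polymerase on sequenced MiSeq chips. The flowed solution held 40 μM to 10 mM glucosamine-6-phosphate in HEPES/KCl/Mg(OAc)2 buffer, and imaging ran over ~14 h. kobs was taken from exponential decay fits of normalised per-tile medians, and kcat and KM from weighted Michaelis–Menten fits.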
row,Variant,self-cleavage kobs at 2500 uM GlcN6P [s⁻¹]
1,AUAAAAGCGCCAGAACUACAGAAAUGUAGUUGACGAGAAGGAGGUUUAAAGAAUUUUCGGCGGAUGCCUCCAAA [G38A U49A C50A],< 1e-05
2,AUAAAAGCGCUAGAACUACAGAAAUGUACUAGACGAGGAGGAGGUUUAUCGAAUUUUCGGCGGAUGCCUCCAAA [C11U G29C U31A],< 1e-05
3,AUAAAAGCGCCAAAACUACAGAAAUGUAGUUGACGAGGAGGAGGUUUAUCGAAUUUUCGGCGGCUGCCUCUAAA [G13A A64C C71U],< 1e-05
4,AUAAAAGCGCCAGAACUACAGAAAUGUAGUUGACGAUGAGGAGUUUUAUCGAAUUUUAGGCGGAUGCCUCAAAA [G37U G44U C58A C71A],< 1e-05
5,AUAAAAGCGCCAGAACUACAGAAAUGUAAUUCAAGAGGAGGAGGUUUGUCGAAUUUACGGCGGAUGCCUCCAAA [G29A G32C C34A A48G U57A],< 1e-05
6,AUAAACGCGCCAGAACUACAGAAAUGUAGUUGACGAGUAGGGGGUUUAUCGAAUUUCCGGCGGAUGCCUCCAAA [A6C G38U A42G U57C],< 1e-05
7,AUAAAAGAGCCAGAACUACAGAAAUGUAGUUGACGAGGAGGAGGUUUAUCGAAUUUUUGGCGGUUGGCUCCAAA [C8A C58U A64U C67G],< 1e-05
8,AUAAAAUCGCCAGCACUACAGAAAUGUAGUUGACGAGGAGGAGGUUUAUCGAAUUCUCGGCGGAUGCCUCCAAA [G7U A14C U56C],< 1e-05
9,AUAAAAGCGCCAGAACUACAGAAAUGUAGUUGACGAGGAGGAGAUUUGUCGAAUAUUCGGCGGAUGCCUCCAAA [G44A A48G U55A],< 1e-05
10,AUAAAAGUGCUUGAACUACAGAAAUGUAGUUGACGCGGGGGAGGUUUAUCGAAUUUUCGGCGGAUGCCUCCAAA [C8U C11U A12U A36C A39G],< 1e-05
11,AUAAAAGCGCCAGAACUACAGAAAUGUAGUUGAUGAGGAGGAGGUGUAUCGAAUUUUCGGCGGAUUCCUCCAAA [C34U U46G G66U],< 1e-05
12,AUAAAAGCGCCUGAACUACAGAAAUGUAGUUGACAAGGAGGAGGUUUAUCGCAUUUUGGGCGGAUGCGUCCAAA [A12U G35A A52C C58G C68G],< 1e-05
13,AUAAAAGCGCCAGAAUUACAGAAAUGUAGUUGACGAUGAGAAGGUUUAUCGAAUUUUCGGCGGAUGCCUCCAAA [C16U G37U G41A],< 1e-05
14,AUAAAGGCGCCAUAACUACAGAAAUGUAGUUGACGAGGAAGAGGUUUAUCGAAUUUUCGGCGGAUGCCUCUAAA [A6G G13U G40A C71U],< 1e-05
15,AUAAAAGCGCCAGUACUACAGAAAUGUAGUUUACGAGGAGGAGGUUUAUCGAGUUUUCGGCGGAUGCCUCCAAA [A14U G32U A53G],0.000242 ± 7.5e-05
16,AUAAAAGCGCCAGAGCUACAGAAAUGUAGUUGACGAGGAGGAGGUGUAUCCAAUCUUCAGCGUAUGCCUCCAAA [A15G U46G G51C U55C G59A G63U],< 1e-05

row,Variant,self-cleavage kobs at 2500 uM GlcN6P [s⁻¹]
1,AUAAAAGCGCCAGAACUACAGAAAUGUAGUUGAAGAGGUGAAGGUUUAUCGAAAUUUCGGCGGAUGCCUCCAAA [C34A A39U G41A U54A],< 1e-05
2,AUAAAAGAGCUAGAACUACAGAAAUGUAGUUGACGAGGAGGAGGUUUAUCGAAUUUUCGGCGGAUGCCUUCAAA [C8A C11U C70U],< 1e-05
3,AUAAAAGCGCCAGAGCUACAGAAAUGUAGUUGACCACGAGGAGGUUUACCGAAUUUUCGGCGGAUGCCUCCAAA [A15G G35C G37C U49C],< 1e-05
4,AUAAAAGCGCCAGAUCUACAGAAAUGUAGUUGACGAGGAGUGGGUUUAUCGAAUUUCCGGCGGAUGCCUACAAA [A15U G41U A42G U57C C70A],7.37e-05 ± 2.1e-05
5,AUAAAAGCGCCACAGCUACAGAAAUGUAGUUGACGAGGAGGAGGUUUAUCGAAUUUUAGGCGGAUGCCUCCAAA [G13C A15G C58A],5.1e-05 ± 1.5e-05
6,AUAAAAGGGCCAGAACUACAGAAAUGUAGUUGACGAGAAGGAGGUUUGUCGAAUUUGCGGCGGAUGCCUCCAAA [C8G G38A A48G U57G],< 1e-05
7,AUAAAAGCGCCAGAACUACAGAAAUGUAGUUGACGAGGAGGCGGUUUAUCAAAUUUUCGGCGGUUGCGUCCAAA [A42C G51A A64U C68G],< 1e-05
8,AUAAAAGCGCCAGAACUACAGAAAUGUAGUUGACGACUAGGCGGCGUAUCGAAUUUUCGGCGGAUGCCUCCAAA [G37C G38U A42C U45C U46G],< 1e-05
9,AUAAAAGCGCCUGAACUACAGAAAUGUAGUUGACGAGGAGGAGUUUUAUCGAAUUUUCGGCGGAUGUCUCCAAA [A12U G44U C67U],0.0167 ± 0.0049
10,AUAAAAGCGCCAGACCUACAGAAAUGUAGUUGACGAGGAGGAGGCUUAUGGAAUUUUCGGCGGAUGCUUCCAAA [A15C U45C C50G C68U],< 1e-05
11,AUAAAAGCGCCAGAACUACAGAAAUGUAGCUGACGAGGAGGAGGUUUAUGGAAUUUUCGGCGCAUGCCUCCAAA [U30C C50G G63C],0.00014 ± 5.2e-05
12,AUAAAAGUGCGACAACUACAGAAAUGUAGUUGACGAGGAGGAGGUUUAUCGAAUUUUCGGCGGAUGCCUCCAAA [C8U C11G G13C],< 1e-05
13,AUAAAAGCGCCAGAACUACAGAAAUGUAGUUGUCGAGGAGGAUGUUUAUCGAAAUUUCGACGGAUGCCUCCAAA [A33U G43U U54A G60A],< 1e-05
14,AUAAAAGCGCCAGAACUACAGAAAUGUAGUUAACGAGGAGGAGGCUUAUCGGAUUUUCGGCGGAUGCCUCCAAA [G32A U45C A52G],< 1e-05
15,AUAAAGGCGCCAGAACUACAGAAAUGUAGUUGACGAGGAGGAGGUUUAUUGAAUUUUCGGCGGCUGCCUCUAAA [A6G C50U A64C C71U],< 1e-05
16,AUAAAAGCGCCAGAACUACAGAAAUGUAGUUGACGAGAAGGAGGUUUAUGGAAUUUUCUGAGGAUGGCUCCAAA [G38A C50G G59U C61A C67G],8.22e-05 ± 2.2e-05

# Variants of: B1
# Test: self-cleavage kobs at 10000 uM GlcN6P; higher = faster cleavage; RNA array
# Conditions: with glucosamine-6-phosphate
# Procedure, shortened: as §1
row,Variant,self-cleavage kobs at 10000 uM GlcN6P [s⁻¹]
1,AUAAAAGCGCCAGAACUACAGAAAUGUAGUUGACGAGGAGGAGAUUUGUCGAAUAUUCGGCGGAUGCCUCCAAA [G44A A48G U55A],< 1e-05
2,AUAAAAGUGCUUGAACUACAGAAAUGUAGUUGACGCGGGGGAGGUUUAUCGAAUUUUCGGCGGAUGCCUCCAAA [C8U C11U A12U A36C A39G],< 1e-05
3,AUAAAAGCGCCAGAAUUACAGAAAUGUAGUUGACGAUGAGAAGGUUUAUCGAAUUUUCGGCGGAUGCCUCCAAA [C16U G37U G41A],< 1e-05
4,AUAAAAGCGCCACAGCUACAGAAAUGUAGUUGACGAGGAGGAGGUUUAUCGAAUUUUAGGCGGAUGCCUCCAAA [G13C A15G C58A],0.000154 ± 2.6e-05
